Target: cytosolic fragment of the McpN chemoreceptor (Pseudomonas aeruginosa PAO1)
Experiment: ITC

CheV D238E (natural protein) gave a KD of the first binding event (high affinity, endothermic) of 8 nM, a KD of the second binding event (lower affinity, exothermic) of 3000 nM and a N of the first binding event of 0.5.

— article doi:10.1101/2025.02.06.636884
